Assay results taken from patent US11230581B2, “Peptides and combination of peptides for use in immunotherapy against ovarian cancer and other cancers” (Immatics Biotechnologies GmbH, priority 2015, dated 2022).

The substances below were run against HLA-A*02:01 (Homo sapiens, UniProt P04439, D140Y/D185E/D98H/E176V/E277Q/G131W/G231S/I119V/I121R/I166T/I218V/L300P/L318F/N151K/N90K/P208A/P217A/Q86G/Q94H/R138H/R169H/T345S) (assay: MHC binding assay (UV-ligand exchange, β2m ELISA, peptide exchange yield)). Conditions: binding of HLA-class I restricted peptides to HLA-A*02:01, UV-ligand exchange.
Procedure, shortened: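 Yield of stabilized complexes quantified via the β2m light chain in an ELISA (streptavidin capture, 100-fold diluted monomers, HRP anti-β2m 2 ug/ml at 37 °C, TMB, A450). The complexes come from UV-triggered replacement of a photocleavable ligand by the candidate peptide.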

How did the “Peptide exchange (MHC class I binding score, peptide exchange yield)” value (shortened to “Peptide exchange”) turn out when “455 (SLLKEPQKVQL; listed as Homo sapiens) [compound 455]” was run?
The value was ““++” (≥20% = ++)”.

“304 (MTLGQIYYL; listed as Homo sapiens) [compound 304]” was tested. Which “Peptide exchange” value did it give?
The value was ““+++” (≥50 = +++)”.

With “384 (ILFANPNIFV; listed as Homo sapiens) [compound 384]” as the substance, how does the “Peptide exchange” value read?
Its value is ““+++” (≥50 = +++)”.

With “563 (WLLPYNGVTV; listed as Homo sapiens) [compound 563]” as the substance, how does the “Peptide exchange” value read?
The value was ““+++” (≥50 = +++)”.

With “599 (YLLNDASLISV; listed as Homo sapiens) [compound 599]” as the substance, how does the “Peptide exchange” value read?
The value was ““+++” (≥50 = +++)”.

Which “Peptide exchange” value does the source give for “436 (HLAEVSAEV; listed as Homo sapiens) [compound 436]” here?
Its value is ““+++” (≥50 = +++)”.

For “577 (VMFEDGVLMRL; listed as Homo sapiens) [compound 577]”, which “Peptide exchange” value is on record?
The value was ““+++” (≥50 = +++)”.

With “439 (YLLQEIYGI; listed as Homo sapiens) [compound 439]” as the substance, how does the “Peptide exchange” value read?
Its value is ““+++” (≥50 = +++)”.

How did the “Peptide exchange” value turn out when “611 (YLLDDGTLVV; listed as Homo sapiens) [compound 611]” was run?
The value was ““++++” (≥75% = ++++)”.

“451 (LLLLDTVTMQV; listed as Homo sapiens) [compound 451]” was tested. Which “Peptide exchange” value did it give?
The value was ““++” (≥20% = ++)”.

Which “Peptide exchange” value does the source give for “315 (YLQDVVEQA; listed as Homo sapiens) [compound 315]” here?
The value was ““+++” (≥50 = +++)”.

How did the “Peptide exchange” value turn out when “187 (RQISIRGIVGV; listed as Homo sapiens) [compound 187]” was run?
The value was ““+++” (≥50 = +++)”.

How did the “Peptide exchange” value turn out when “168 (KILDADIQL; listed as Homo sapiens) [compound 168]” was run?
Its value is ““++++” (≥75% = ++++)”.

How did the “Peptide exchange” value turn out when “10 (FLATFPLAAV; listed as Homo sapiens) [compound 10]” was run?
Its value is ““++++” (≥75% = ++++)”.

For “570 (ALANQIPTV; listed as Homo sapiens) [compound 570]”, which “Peptide exchange” value is on record?
Its value is ““++” (≥20% = ++)”.

With “31 (YLAPELFVNV; listed as Homo sapiens) [compound 31]” as the substance, how does the “Peptide exchange” value read?
The value was ““++” (≥20% = ++)”.

“27 (ILADIVISA; listed as Homo sapiens) [compound 27]” was tested. Which “Peptide exchange” value did it give?
Its value is ““+++” (≥50 = +++)”.

“255 (VLASYNLTV; listed as Homo sapiens) [compound 255]” was tested. Which “Peptide exchange” value did it give?
The value was ““+++” (≥50 = +++)”.

For “30 (LILDWVPYI; listed as Homo sapiens) [compound 30]”, which “Peptide exchange” value is on record?
The value was ““+++” (≥50 = +++)”.

How did the “Peptide exchange” value turn out when “511 (FLDPYCSASV; listed as Homo sapiens) [compound 511]” was run?
The value was ““++” (≥20% = ++)”.

How did the “Peptide exchange” value turn out when “309 (GLFDGVPTTA; listed as Homo sapiens) [compound 309]” was run?
The value was ““+++” (≥50 = +++)”.

Which “Peptide exchange” value does the source give for “48 (ALAELYEDEV; listed as Homo sapiens) [compound 48]” here?
The value was ““+++” (≥50 = +++)”.

Which “Peptide exchange” value does the source give for “46 (ILTEENIHL; listed as Homo sapiens) [compound 46]” here?
Its value is ““+++” (≥50 = +++)”.

“469 (YLASDEITTV; listed as Homo sapiens) [compound 469]” was tested. Which “Peptide exchange” value did it give?
The value was ““+++” (≥50 = +++)”.

With “104 (STMEQNFLL; listed as Homo sapiens) [compound 104]” as the substance, how does the “Peptide exchange” value read?
Its value is ““++++” (≥75% = ++++)”.
